US20210100839A1 (CELLECTIS, published 2021)

Molecular target: T1, recombinant CD22 protein corresponding to the whole extracellular domain of CD22 (human; mouse, UniProt P20273 20-687)
T1 construct: range 20-687; also called full length recombinant CD22 protein; CD22 recombinant protein (full length)
Assay: flow cytometry, CAR T cells stained with recombinant full length CD22 protein
Procedure: CAR detection at the surface of T-cells is performed using a recombinant protein consisting on the extracellular domain of the human CD22 protein (whole protein, distal portion of CD22 or proximal portion of CD22) fused together with a murine IgG1 Fc fragment. Binding of this protein to the CAR molecule is detected with a PE-conjugated secondary antibody (Jackson Immunoresearch) targeting the mouse Fc portion of the protein, and analyzed by flow cytometry.
Then, CAR positive cells frequency (% of CAR-expressing cells over the total number of cells) was assessed by flow cytometry using a recombinant CD22 protein corresponding to the membrane proximal domain of CD22 or a recombinant CD22 protein corresponding to the whole extracellular domain of CD22 (FIG. 5).

Row | binding result | Binder
1 | binds | anti-CD22 CAR3 (prot CAR3) (other, Single-chain CAR on T cells; range counted on the printed copy) QVQLQQSGPGLVEPSQTLSLTCAISGDSVSSDSVAWNWIRQSPSRGLEWLGRTYYRSTWYNDYAGSVKSRITINPDTSKNQFSLQLTSVTPEDTAVYYCTRSRHNTFRGMDVWGQGTTVTVSGGGGSGGGGSGGGGSDIVMTQSPSSLSASVGDRVTITCRASQTISSYLNWYQQKPGKAPKLLIYDASSLQSGVPSRFSGSGSGTDFTLTINSLQPEDFATYYCQQSYTTPITFGQGTRLEIKTTTPAPRPPTPAPTIASQPLSLRPEACRPAAGGAVHTRGLDFACDIYIWAPLAGTCGVLLLSLVITLYCKRGRKKLLYIFKQPFMRPVQTTQEEDGCSCRFPEEEEGGCELRVKFSRSADAPAYQQGQNQLYNELNLGRREEYDVLDKRRGRDPEMGGKPRRKNPQEGLYNELQKDKMAEAYSEIGMKGERRRGKGHDGLYQGLSTATKDTYDALHMQALPPR
2 | binds | anti-CD22 CAR2 (prot CAR2) (other, Single-chain CAR on T cells; range counted on the printed copy) QVQLQQSGPGLVKPSQTLSLTCAISGDSVSSNSAAWNWIRQSPSRGLEWLGRTYYRSKWYNDYAVSVKSRITINPDTSKNQFSLQLNSVTPEDTAVYYCARASMTGGYSYGDAFDIWGQGTLVTVSGGGGSGGGGSGGGGSAIRMTQSPSSLSASVGDRVTITCRASQSISSYLNWYQQKPGKAPKLLIYAASSLQSGVPSRFSGSGSGTDFSLTISSLQPEDSATYYCQQTYSTPLTFGQGTKVEIKTTTPAPRPPTPAPTIASQPLSLRPEACRPAAGGAVHTRGLDFACDIYIWAPLAGTCGVLLLSLVITLYCKRGRKKLLYIFKQPFMRPVQTTQEEDGCSCRFPEEEEGGCELRVKFSRSADAPAYQQGQNQLYNELNLGRREEYDVLDKRRGRDPEMGGKPRRKNPQEGLYNELQKDKMAEAYSEIGMKGERRRGKGHDGLYQGLSTATKDTYDALHMQALPPR

The next lines start with the binder.

Row | Binder | binding result
3 | anti-CD22 CAR9 (prot CAR9) (other, Original clone number 9; Single-chain CAR on T cells; range counted on the printed copy; also called CAR9 7) QVQLQQSGPGLVQPSQTLSLTCVISGDSVSSNSATWNWIRQSPSRGLEWLGRTYYRSKWYNDYAVSVKSRITINPDTSKNQFSLQLNSVTPEDTAVYYCARDGDGGSYYDYYYYGMDVWGQGTTVTVSGGGGSGGGGSGGGGSDIQLTQSPSSLSTSVGDRVTITCRASQSISTYLNWYQQKPGKAPKLLIYAASNLQSGVPSRFSGSGSGTDFTLTISSLQPEDFATYFCQQSYTTPITFGQGTRLEIKTTTPAPRPPTPAPTIASQPLSLRPEACRPAAGGAVHTRGLDFACDIYIWAPLAGTCGVLLLSLVITLYCKRGRKKLLYIFKQPFMRPVQTTQEEDGCSCRFPEEEEGGCELRVKFSRSADAPAYQQGQNQLYNELNLGRREEYDVLDKRRGRDPEMGGKPRRKNPQEGLYNELQKDKMAEAYSEIGMKGERRRGKGHDGLYQGLSTATKDTYDALHMQALPPR | binds
4 | anti-CD22 CAR8 (prot CAR8) (other, Original clone number 8; Single-chain CAR on T cells; range counted on the printed copy; also called CAR8 6) QVQLQQSGPGLVKPSQTLSLTCAISGDSVSSSSAAWNWIRQSPSRGLEWLGRTYYRSAWYNDYAVSVKSRITINPDTSKNQFSLQLNSVTPEDTAVYYCARESVLLDGMDVWGRGTTVTVSGGGGSGGGGSGGGGSAIRMTQSPSTLSASVGDRVTITCRASQSISTYLNWYQQKAGKAPRLLIHDASSLQSGVPSRFSGSGSGTDFTLTISSLQPEDFATYYCQQSYSTPLTFGGGTKVEIKTTTPAPRPPTPAPTIASQPLSLRPEACRPAAGGAVHTRGLDFACDIYIWAPLAGTCGVLLLSLVITLYCKRGRKKLLYIFKQPFMRPVQTTQEEDGCSCRFPEEEEGGCELRVKFSRSADAPAYQQGQNQLYNELNLGRREEYDVLDKRRGRDPEMGGKPRRKNPQEGLYNELQKDKMAEAYSEIGMKGERRRGKGHDGLYQGLSTATKDTYDALHMQALPPR | binds
5 | anti-CD22 CAR15 (prot CAR15) (other, Original clone number 15; Single-chain CAR on T cells; range counted on the printed copy; also called CAR15 10) QVQLVQSGAEVKKPGASVKVSCKASGYTFTSYYMHWVRQAPGQGLEWMGIINPSGGSTSYAQKFQGRVTMTRDTSTSTVYMELSSLRSEDTAVYYCAREDSGSGAFDIWGQGTLVTVSGGGGSGGGGSGGGGSEIVLTQSPLSLPVTPGEPASISCRSSRSLLSYHGYNYLDWYLQKPGQSPQLLIFVGSNRAPGVPDRFSGSGSGTDFTLNISRVEAEDVGVYYCMQSLQTPRTFGQGTKVEIKTTTPAPRPPTPAPTIASQPLSLRPEACRPAAGGAVHTRGLDFACDIYIWAPLAGTCGVLLLSLVITLYCKRGRKKLLYIFKQPFMRPVQTTQEEDGCSCRFPEEEEGGCELRVKFSRSADAPAYQQGQNQLYNELNLGRREEYDVLDKRRGRDPEMGGKPRRKNPQEGLYNELQKDKMAEAYSEIGMKGERRRGKGHDGLYQGLSTATKDTYDALHMQALPPR | binds
6 | anti-CD22 CAR7 (prot CAR7) (other, Single-chain CAR on T cells; range counted on the printed copy; also called CAR7 5) QVQLQQSGPGLVEPSQTLSLTCAISGDSVSSDSVAWNWIRQSPSRGLEWLGRTYYRSTWYNDYAGSVKSRITINPDTSKNQFSLQLNSVTPEDTAVYYCARDRNGMDVWGQGTMVTVSGGGGSGGGGSGGGGSDIVMTQSPSSLSASVGDRVTITCRASQSISSYLNWYQQKPGKAPKLLIYDASNLETGVPSRFSGSGSGTDFTFTITSLQPEDFATYYCQQSYTTPLTFGGGTKVEIKTTTPAPRPPTPAPTIASQPLSLRPEACRPAAGGAVHTRGLDFACDIYIWAPLAGTCGVLLLSLVITLYCKRGRKKLLYIFKQPFMRPVQTTQEEDGCSCRFPEEEEGGCELRVKFSRSADAPAYQQGQNQLYNELNLGRREEYDVLDKRRGRDPEMGGKPRRKNPQEGLYNELQKDKMAEAYSEIGMKGERRRGKGHDGLYQGLSTATKDTYDALHMQALPPR | binds
